In doi:10.1101/2025.07.11.664400 (bioRxiv, 2025):

T1: RecC (E. coli, UniProt P07648)
T1 sequence: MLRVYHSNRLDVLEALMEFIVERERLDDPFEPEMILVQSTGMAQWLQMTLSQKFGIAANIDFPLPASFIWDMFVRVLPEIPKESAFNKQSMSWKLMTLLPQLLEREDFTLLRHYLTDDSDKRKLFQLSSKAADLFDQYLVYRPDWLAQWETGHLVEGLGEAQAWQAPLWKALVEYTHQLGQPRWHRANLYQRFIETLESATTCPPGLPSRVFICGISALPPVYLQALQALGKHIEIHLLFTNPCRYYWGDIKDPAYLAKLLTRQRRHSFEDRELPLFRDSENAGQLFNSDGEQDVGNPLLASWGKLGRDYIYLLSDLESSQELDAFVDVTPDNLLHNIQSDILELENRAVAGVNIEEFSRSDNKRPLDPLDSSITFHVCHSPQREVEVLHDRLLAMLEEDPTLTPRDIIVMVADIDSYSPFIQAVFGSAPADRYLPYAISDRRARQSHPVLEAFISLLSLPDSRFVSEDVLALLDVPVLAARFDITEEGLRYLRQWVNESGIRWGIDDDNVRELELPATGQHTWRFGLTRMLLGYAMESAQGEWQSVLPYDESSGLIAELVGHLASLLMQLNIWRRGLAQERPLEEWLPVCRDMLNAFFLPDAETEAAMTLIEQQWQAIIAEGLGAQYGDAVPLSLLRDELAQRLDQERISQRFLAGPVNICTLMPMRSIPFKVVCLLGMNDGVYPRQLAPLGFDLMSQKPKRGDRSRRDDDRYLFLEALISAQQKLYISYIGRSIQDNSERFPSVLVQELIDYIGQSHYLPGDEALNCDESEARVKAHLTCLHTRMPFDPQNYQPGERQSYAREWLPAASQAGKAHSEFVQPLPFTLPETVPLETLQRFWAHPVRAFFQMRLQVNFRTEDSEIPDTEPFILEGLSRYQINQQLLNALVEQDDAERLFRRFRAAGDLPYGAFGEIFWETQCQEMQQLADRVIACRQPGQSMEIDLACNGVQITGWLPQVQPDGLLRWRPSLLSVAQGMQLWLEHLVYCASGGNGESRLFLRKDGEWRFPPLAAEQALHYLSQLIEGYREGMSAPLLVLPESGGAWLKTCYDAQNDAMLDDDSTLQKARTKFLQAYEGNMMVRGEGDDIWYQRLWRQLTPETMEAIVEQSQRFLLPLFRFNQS

B1: RecB^ΔNuc (RecB with the nuclease domain, residues 930-1180, deleted) (domain or fragment)
chain: MSDVAETLDPLRLPLQGERLIEASAGTGKTFTIAALYLRLLLGLGGSAAFPRPLTVEELLVVTFTEAATAELRGRIRSNIHELRIACLRETTDNPLYERLLEEIDDKAQAAQWLLLAERQMDEAAVFTIHGFCQRMLNLNAFESGMLFEQQLIEDESLLRYQACADFWRRHCYPLPREIAQVVFETWKGPQALLRDINRYLQGEAPVIKAPPPDDETLASRHAQIVARIDTVKQQWRDAVGELDALIESSGIDRRKFNRSNQAKWIDKISAWAEEETNSYQLPESLEKFSQRFLEDRTKAGGETPRHPLFEAIDQLLAEPLSIRDLVITRALAEIRETVAREKRRRGELGFDDMLSRLDSALRSESGEVLAAAIRTRFPVAMIDEFQDTDPQQYRIFRRIWHHQPETALLLIGDPKQAIYAFRGADIFTYMKARSEVHAHYTLDTNWRSAPGMVNSVNKLFSQTDDAFMFREIPFIPVKSAGKNQALRFVFKGETQPAMKMWLMEGESCGVGDYQSTMAQVCAAQIRDWLQAGQRGEALLMNGDDARPVRASDISVLVRSRQEAAQVRDALTLLEIPSVYLSNRDSVFETLEAQEMLWLLQAVMTPERENTLRSALATSMMGLNALDIETLNNDEHAWDVVVEEFDGYRQIWRKRGVMPMLRALMSARNIAENLLATAGGERRLTDILHISELLQEAGTQLESEHALVRWLSQHILEPDSNASSQQMRLESDKHLVQIVTIHKSKGLEYPLVWLPFITNFRVQEQAFYHDRHSFEAVLDLNAAPESVDLAEAERLAEDLRLLYVALTRSVWHCSLGVAPLVRRRGDKKGDTDVHQSALGRLLQKGEPQDAAGLRTCIEALCDDDIAWQTAQTGDNQPWQVNDVSTAELNAKTLQRLPGDNWRVTSYSGLQQRGHGIAQDLMPRLDVDAA
B2: 3'-dT2 (dsDNA)
DNA 1: CCATGGCTCCTGAGCTAGCTGCAGTAGCCTAAAGGATGAAACTAGGATCTTATGCTCCAGTT
DNA 2: CTGGAGCATAAGATCCTAGTTTCATCCTTTAGGCTACTGCAGCTAGCTCAGGAGCCATGGTT
B3: RecD (natural protein)
chain: MKLQKQLLEAVEHKQLRPLDVQFALTVAGDEHPAVTLAAALLSHDAGEGHVCLPLSRLENNEASHPLLATCVSEIGELQNWEECLLASQAVSRGDEPTPMILCGDRLYLNRMWCNERTVARFFNEVNHAIEVDEALLAQTLDKLFPVSDEINWQKVAAAVALTRRISVISGGPGTGKTTTVAKLLAALIQMADGERCRIRLAAPTGKAAARLTESLGKALRQLPLTDEQKKRIPEDASTLHRLLGAQPGSQRLRHHAGNPLHLDVLVVDEASMIDLPMMSRLIDALPDHARVIFLGDRDQLASVEAGAVLGDICAYANAGFTAERARQLSRLTGTHVPAGTGTEAASLRDSLCLLQKSYRFGSDSGIGQLAAAINRGDKTAVKTVFQQDFTDIEKRLLQSGEDYIAMLEEALAGYGRYLDLLQARAEPDLIIQAFNEYQLLCALREGPFGVAGLNERIEQFMQQKRKIHRHPHSRWYEGRPVMIARNDSALGLFNGDIGIALDRGQGTRVWFAMPDGNIKSVQPSRLPEHETTWAMTVHKSQGSEFDHAALILPSQRTPVVTRELVYTAVTRARRRLSLYADERILSAAIATRTERRSGLAALFSSRE
B4: 3'-dT4 (dsDNA)
DNA 1: CCATGGCTCCTGAGCTAGCTGCAGTAGCCTAAAGGATGAAACTAGGATCTTATGCTCCAGTTTT
DNA 2: CTGGAGCATAAGATCCTAGTTTCATCCTTTAGGCTACTGCAGCTAGCTCAGGAGCCATGGTTTT

How the values were obtained:
RecC = biological target: T1, RecC; experiment: AUC
RecBΔNucCD = RecBΔNucCD (Escherichia coli, UniProt P08394;P07648;P04993 1-929;1-1122;1-608); experiment: fluorescence competition
RecBCD = RecBCD (Escherichia coli, UniProt P08394;P07648;P04993 1-1180;1-1122;1-608); experiment: fluorescence competition

Binder | binding result (RecC) | Ka (RecBΔNucCD) | Ka (RecBCD)
B1 | binds |  | 
B2 |  | 9.6e+07 M⁻¹ | 2.1e+07 M⁻¹
B3 | binds |  | 
B4 |  | 3.3e+08 M⁻¹ | 4.7e+07 M⁻¹
